Results from publication PMC3187746.

Columns and labels:
[1] = biological target: pUL77 (Human cytomegalovirus (cosmid pCM1075; strain not stated)) (UniProt P16726); assay: pull-down; conditions: scale: binding efficiency
[2] = biological target: in vitro translated, radiolabeled pUL77 (wild type, from pcDNA-UL77) (human cytomegalovirus (HCMV)) (UniProt P16726); assay: cross-linking; in vitro translated, radiolabeled protein in PBS, 0.01% glutaraldehyde, 8% SDS-PAGE, autoradiography
[3] = biological target: purified recombinant pUL77 (rpUL77) (human cytomegalovirus (HCMV)) (UniProt P16726); assay: cross-linking

| Substance | binding signal [1] | further results |
| --- | --- | --- |
| bio-250 bp | 0.5 |  |
| bio-500 bp | 2.2 |  |
| bio-1000 bp | 4.9 |  |
| in vitro translated, radiolabeled pUL77 (wild type, from pcDNA-UL77) (from UniProt P16726 1-642) (natural protein) |  | stoichiometry N [2]: 2 |
| purified recombinant pUL77 (rpUL77) (from UniProt P16726 1-642) (natural protein) |  | stoichiometry N [3]: 2 |
